Assay results published in patent US20130243775A1.

Target: interleukin-4 receptor (IL-4R) (UniProt P24394)
Assay: cell-based or functional assay

Chain of UniProt P24394 (P24394 26-825 limits assumed): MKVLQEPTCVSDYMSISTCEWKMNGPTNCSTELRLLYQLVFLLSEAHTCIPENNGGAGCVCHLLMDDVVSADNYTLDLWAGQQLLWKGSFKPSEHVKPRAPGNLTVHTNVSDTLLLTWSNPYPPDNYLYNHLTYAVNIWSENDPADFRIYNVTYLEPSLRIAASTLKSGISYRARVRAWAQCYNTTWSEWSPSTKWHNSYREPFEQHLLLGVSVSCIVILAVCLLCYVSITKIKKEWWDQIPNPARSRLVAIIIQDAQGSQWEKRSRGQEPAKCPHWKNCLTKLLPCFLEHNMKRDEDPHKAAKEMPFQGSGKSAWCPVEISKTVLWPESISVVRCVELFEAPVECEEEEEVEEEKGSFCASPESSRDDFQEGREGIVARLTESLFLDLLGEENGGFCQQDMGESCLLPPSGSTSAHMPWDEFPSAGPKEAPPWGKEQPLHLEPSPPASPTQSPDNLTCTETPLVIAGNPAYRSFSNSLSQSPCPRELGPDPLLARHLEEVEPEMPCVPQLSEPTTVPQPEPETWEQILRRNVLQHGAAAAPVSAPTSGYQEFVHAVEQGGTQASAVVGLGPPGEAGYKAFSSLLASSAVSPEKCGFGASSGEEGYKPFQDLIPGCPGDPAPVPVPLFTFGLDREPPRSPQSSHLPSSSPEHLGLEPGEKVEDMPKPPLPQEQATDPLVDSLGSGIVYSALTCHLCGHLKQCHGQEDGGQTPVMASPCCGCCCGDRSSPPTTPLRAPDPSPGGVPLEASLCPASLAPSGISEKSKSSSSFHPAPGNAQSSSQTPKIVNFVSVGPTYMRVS

attenuation of IL-4R activity relative to the control constructs (STAT6-luciferase reporter): > 10%
B1: anti-IL-4R:anti-CD63 conjugate (streptavidin-conjugated anti-IL-4R antibody combined 1:1 with biotinylated anti-CD63 antibody MEM-259) (protein, part only; not given: anti-CD63 antibody, constant regions, part only)
VH: EVQLVESGGGVVQPGRSLRLSCVASGFTFSDYGMHWVRQAPGKGLEWVAVIWYDGSIKYFRDSVKGRFTISRDNSKNTLYLQMNSLRVEDTAHYYCAKESSSWYFYHGLDVWGQGTMVTVSS
VL: EIVMTQSPLSLPVSPGEPASISCRSNQSLLHSNGNNYLAWYLQKPGQSPHLLIYLGSNRASGVPDRFSGSGSGTDFTLKISRVEAGDVGTYFCMQSLQAPPFTFGPGTKVEIKR
modifications: antibody is streptavidin-conjugated (site not stated)
